Assay results taken from patent US10969392B2, “Methods and systems for predicting response to immunotherapies for treatment of cancer” (Vanderbilt University, priority 2015, dated 2021).
“Also recorded” adds a separate entry of the source.

What was measured:
Type in all cases: cell-based, human
melanoma cell lines [1] = experiment: IFNγ stimulation of melanoma cell lines, flow cytometry for HLA-DR and PD-L1; details: for HLA-DR surface expression: 100 ng/mL; for HLA-DR expression by flow cytometry: Example 5
Protocol: (§1) FIGS. 3A-F show characterization of MHC-II(+) melanoma cell lines. Melanoma cell lines were treated with IFNy for 24 h before collection and live-cell staining and flow cytometry analysis for (A) MHC-I (HLA-A/B/C), (B) MHC-II (HLA-DR), and (C) PD-L1. Bars represent mean ±S.E.M. for at least three experiments (D) Representative flow plots from (C). (E) Western blot analysis of melanoma cell lines after 24 or 48 h of IFNy stimulation. (F) Phosphorylation of STAT1 (top row) and STAT5 (bottom row) in melanoma cell lines at 15 min after IFNy stimulation. Histograms were coloured according to the arcsinh transformed ratio or MFI medians relative to the table minimum value.
FIGS. 4A-D show graphs illustrating mean expression levels of MHC-I, MHC-II, and PD-L1 at baseline and after IFNy stimulation. Melanoma cell lines were treated with 100 ng IFNy for 24 hr (shown as percentage positive in FIGS. 2A-C) prior to harvest and live-cell staining and flow cytometry analysis for (A) MHC-I/HLA-A/B/C, (B) MHC-II/HLA-DR, and (C) PD-L1. Bars represent mean fluorescence intensity ±SEM for 3 experiments. (D) Histograms of HLA-DR surface expression over an extended (24-72 hr) IFNy treatment, as assessed by flow cytometry.
Cell surface expression mirrored mRNA expression patterns; MHC-I (HLA-A/B/C) was expressed ubiquitously among all cell lines under both basal and stimulated conditions, while MHC-II (HLA-DR) was present only on the intermediate/Ib (SKMEL5 and SKMEL28) and high/Ia cell lines (WM115 and A375; FIGS. 3A-C and 4A-D). […] The high (Ia) WM115 cell line was essentially 100% positive for HLA-DR at both basal and stimulated conditions.
Standard Flow Cytometry. Flow cytometry was performed using the following antibodies: HLA-DR/PE-Cy7 (Biolegend, clone L243. 1:20). CD274/PD-L1/APC (Biolegend, clone 29E.2A3, 1:200) and HLA-A/B/C-Alexa Fluor488 (1:100, Biolegend, clone W6/32) mouse MHC-II (I-A/I-E 1:20 Biolegend, clone M5/114.15.2). DAPI was used as a viability dye. Samples were analyzed on an Aria III laser system (BD Biosciences)
Cell and tumor culture. SKMEL-28 and WM115 cell lines were obtained from Dr. Kimberly Dahlman (Vanderbilt University), CHL-1 and HMCB melanoma cell lines were obtained from the laboratory of William Pao (Vanderbilt University). Cell line nature was not directly authenticated, but protein marker expression was consistent with published HLA-DRA mRNA expression patterns (CCLE). Cell lines were confirmed mycoplasma-free and cultured in DMEM containing 10% FBS. Stimulation with recombinant human IFNγ (R&D Systems) was performed at 100 ng/mL. For PDX models and ex-vivo organotypic culture, tumors were freshly resected and sectioned using an Alto tissue matrix sectioner (Roboz Surgical, Gaithersburg, Md.).
Methods. MHC-I/II mRNA was profiled across 60 MEL cell lines. The transcriptional characteristics of MHC-II+ cell lines were analyzed by Gene Set Analysis. Cell surface expression of MHC-I and MHC-II was confirmed by flow cytometry (FC) in a subset of cell lines under basal and stimulated (IFNγ) conditions. In 26 tumor samples from αPD-1 treated MEL patients, immunohistochemistry (IHC) was performed for HLA-DR (MHC-II) or HLA-A (MHC-I), SOX10, CD4 and CD8. IHC results were correlated with response and progression-free survival (PFS).

[2] = test system: PDX tumors from melanoma patients PT1 and PT2; experiment: Ex vivo organotypic culture of PDX tumour slices with or without IFNγ, Western blot for HLA-DR; details: PT1 (anti-PD-1 non-responder) and PT2 (responder) PDX, 24-48 h
Excerpt: FIGS. 6A-D show Ex vivo culture of tumours derived from anti-PD-1-responding and non-responding patients identifies heterogeneity in interferon response. (A) Patient tumour blocks stained for HLA-DR (brown) and SOX10 (pink) at low (scale bar, 500 um) and high magnification (scale bar, […]); PT1: anti-PD-1 non-responder and PT2: anti-PD-1 responder. (B) Experimental schema. (C) Schema and images of PDX tissue sections (ex vivo organotypic culture). (D) Western blot analysis of tissue sections cultured in the presence or absence of IFNy for 24-48 h.
To test this hypothesis, patient-derived xenograft (PDX) models were utilized from the tumor resections of two melanoma patients who subsequently received anti-PD1 therapy; patient 1 (PT1; non-responder, 0% HLA-DR-positive, class II/III) and patient 2 (PT2; partial responder, heterogeneous 15% HLA-DR-positive, class Ib) (FIG. 6A). […] The resected tumors from PT1 and PT2 were serially transplanted to athymic nu/nu mice, which are highly deficient in functional T cells, ruling out a possible source of IFNγ (FIG. 6B). […] Thus, HLA-DR may be a marker of IFNγ activity in the microenvironment of some (but not all) tumors.
Cell and tumor culture. SKMEL-28 and WM115 cell lines were obtained from Dr. Kimberly Dahlman (Vanderbilt University), CHL-1 and HMCB melanoma cell lines were obtained from the laboratory of William Pao (Vanderbilt University). […]

melanoma cell lines [3] = experiment: IFNγ stimulation of melanoma cell lines, Western blot and phospho-flow (STAT1, STAT5, CIITA)
Protocol: as §1
Immunoblotting Immunoblotting was performed as previously described^32 Briefly, cells were washed in cold phosphate-buffered saline, collected and lysed in 1×RIPA buffer (50 mM Tris (pH 7.4), 1% NP-40, 150 mM NaCl, 1 mM EDTA, 0.1% SDS, 0.25% sodium deoxycholate, 5 mM NaF, 5 mM Na3VO4, 10% glycerol, […] phenylmethyl-sulphonylfluoride and protease inhibitors) for 30 min on ice. Lysates were sonicated for 2-3 s to shear DNA and cleared by centrifugation at 13,200 r.p.m. for 15 min. Protein concentrations of the lysates were determined by BCA assay (Bio-Rad, Hercules, Calif.). Samples were separated by SDS-PAGE and transferred to nitrocellulose membrane. Membranes were blocked with 5% non-fat dry milk or 5% bovine serum albumin in tris-buffered saline with 0.1% Tween-20 for 1 h at room temperature and then incubated overnight at 4° C. with the appropriate antibody as indicated. Following incubation with appropriate horseradish peroxidase-conjugated secondary antibodies, proteins were visualized using an enhanced chemiluminescence detection system. […]
Phospho-flow cytometry. […] Samples were analyzed on a LSRII system (BD Biosciences). […]

B1: IFNγ: recombinant human IFNγ (R&D Systems) used at 100 ng/mL to stimulate melanoma cell lines and tumour slices (protein, UniProt P01579 24-161, looked up)
Interferon gamma: QDPYVKEAENLKKYFNAGHSDVADNGTLFLGILKNWKEESDRKIMQSQIVSFYFKLFKNFKDDQSIQKSVETIKEDMNVKFFNSNKKKRDDFEKLTNYSVTDLNVQRKAIHELIQVMAELSPAAKTGKRKRSQMLFRG
HLA-DR surface expression (melanoma cell lines [1]; CHL-1 or HMCB cells, up to 72 hrs): No significant increase | HLA-DR expression by flow cytometry (melanoma cell lines [1]; MHC-II+ (mRNA) cell lines): constitutive and inducible | HLA-DR expression by flow cytometry (melanoma cell lines [1]; MHC-II− cells): did not express or induce | HLA-DR surface expression (melanoma cell lines [1]; SKMEL28 (intermediate/Ib), 25% positive at baseline, 24 h): potently induced | PD-L1 expression (melanoma cell lines [1]; all cell lines tested, 24 h stimulation): significantly upregulated; also recorded: potently induced | HLA-DR upregulation in cultured tissue slices [2]: only the PT2 PDX model (anti-PD-1 responder) upregulated HLA-DR | CIITA expression (melanoma cell lines [3]; Western blot, 24 or 48 h stimulation): only induced in HLA-DR+Ia/Ib cells | STAT1 activation (melanoma cell lines [3]; all cell lines, Western blot 24 or 48 h, phospho-flow 15 min): robustly activated | STAT5 activation (melanoma cell lines [3]; phospho-flow, 15 min stimulation, 100 ng/mL): preferentially activated by IFNγ in MHC-II(−) cell lines
